From publication PMC8928221, “Structure and Function Insight of the α-Glucosidase QsGH13 From Qipengyuania seohaensis sp. SW-135” (Frontiers in Microbiology, 2022)
Each block holds one molecule with its values, some of them ahead of it.

Tests used:
[1] = target: α-glucosidase QsGH13 from Qipengyuania seohaensis sp. SW-135 (Qipengyuania seohaensis sp. SW-135); test: crystal structure; QsGH13 at 10 mg/ml, hanging drop vapour diffusion at 4°C, 0.1 M Tris-HCl pH 8.5, 0.2 M NaCl, 20% PEG 3,350; space group P212121, two monomers per asymmetric unit
QsGH13 = target: T1, QsGH13 (Qipengyuania seohaensis, UniProt A0A8X6EH34); test: residual activity, p-nitrophenol release, absorbance […] nm; type: biochemical; conditions: product tolerance test, 2 M glucose, substrate pNPαGlu, 20 mM Gly-NaOH pH 10.0, 45 °C
T1 construct: N-terminal His6-SUMO tag cut off with Ulp1; expressed in E. coli BL21(DE3) from pSMT3; dimer; primers encode N-terminus MSGKLP and C-terminus ILETDT (translated from primers)

purified protein = substrate: O=[N+]([O-])c1ccc(O[C@H]2O[C@H](CO)[C@@H](O)[C@H](O)[C@H]2O)cc1; test: purified protein; conditions: pH 10.0 (20 mM Gly-NaOH), 45 °C, 0.025-2.0 mM substrate

stoichiometry N [1]: 2
Molecule: α-glucosidase QsGH13 from Qipengyuania seohaensis sp. SW-135 (enzyme)

Molecule: OC[C@H]1OC(O)[C@H](O)[C@@H](O)[C@@H]1O (stereo partly drawn) [glucose]
% activity retained at 2 M (QsGH13): 30%

B1: QsGH13 (Qipengyuania seohaensis) (protein)
chain: MSGKLPWWKGAVIYQIYPRSFMDSNGDGIGDLPGIAQRLPHIAELGADAIWISPFFKSPMKDFGYDVSDYCDVDPIFGTLEDFDAVIARSHELGLKVLIDQVYSHTSDDHEWFAESRSNRDNPKAEWYVWADAKPDGSPPSNWQSVFGGPAWTWDARRGQYYLHNFLSSQPQLNLHNREAQQAVLDVMRFWLERGVDGFRIDALNFAMHDPQLRDNPPAPPTDKQRTRPFDFQLKTYNQSHADIPAFIERIRALTDEFDGIFTVAEVGGDDAVREMKAFTEGETHLNSAYGFNFLYAEALTPQLVCSALAEWPEEPDLGWPSWAFENHDAPRALSRWCTPEDRQAFARLKTLLLMSLRGNAILYYGEELGLTQVDIPFDQLHDPEAIANWPLTLSRDGARTPMPWDDSECAGFGSTAPWLPVGDDNRPRSVAAQLGDANSLLKFTRQAIALRKANPALHHGHVVECNHDGDLLELVREAGGQRLRCRFNLGSKPVECDDCEGRTLLAINGAEPTALPPFAAIILETDT
Km (purified protein): 295.2 ± 32.2 µM
